From US20230192818A1 (TWIST BIOSCIENCE, published 2023) come the findings set out here.

What is called Kd is the free concentration of one partner at which half of the binding sites on the other are occupied at equilibrium, for simple one-to-one binding. Read a high Kd as lower affinity.

Read-outs that look alike come from different tables or passages of the source.

Assay [1] deals with T1, Antibody 178-08_His 501.V2 (27079) (SARS-CoV-2, UniProt P0DTC2 16-685). Nature of the assay: SPR (Carterra).
Assay [2] concerns the target T1, Antibody 178-08_His 501.V2 (27079). Nature of the assay: SPR (Carterra). This is another data set of the same source.

B1: 3-31 (Fc fusion)
chain: EVQLVESGGGLVQPGGSLRLSCAASGSTFSINAMGWFRQAPGKEREFVAGITSSGGYTNYADSVKGRFTISADNSKNTAYLQMNSLKPEDTAVYYCAADGVPEYSDYASGPVWGQGTLVTVSS
notes: also called Antibody 3-31
Turning to B1, the Kd in assay [1] and in assay [2] was 96.7 µM in each case.
